# The nanobody polyreactivity screen of Harvey et al. (2022)
# Assay: yeast display, Sf9 membrane polyspecificity reagent, FACS + sequencing; frameworks hold sequencing errors
# Summary of the method: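 Galactose-induced (36–48 hours) yeast carrying a synthetic nanobody display library were exposed to 10% biotinylated, detergent-solubilized Sf9 membrane reagent at 4 °C for 1 hour. FACS followed streptavidin microbead enrichment, using low and high (top ~1%) gates for expression (anti-HA) and reagent binding (streptavidin). Colony PCR, MiSeq 2 × 250 sequencing and CDR-length filtering followed. Labels for polyreactivity reflect the gate of origin.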
row,Sequence,polyreactivity (PSR sort gate)
1,QVQLVESGGGLVQARRSLRLSCAASGNIFWRNAMGWYRQAPGKERELVAAISRRAVSTYYADSVKGRFTISRDNAKNTVYLQMNSLKPEDTAVYYCAARLGGENDYWGQGTQVTVSS,high polyreactivity
2,QVKLVESGGGLVQAGGSLRLSCAASGSTFWGYAMGWYRQEPGKERELVATITTGGSTNYADSVKGRFTISRDNAKNTVYLQMNSLKPEDTAVYYCAKEVDPGSITSYGAGAHFGFDYWGQGTQVTVSS,low polyreactivity
3,QVQLVESGGGLVQAGGSLRLSCAASGITFYWYAMGWYRQAPGKERELVARISSTGGSTYYADSVKGRFTISRDNAKNTVYLQMNSLKPEDTAVYYCNAVGRLYLYGSWGQGTQVTLSS,high polyreactivity
4,QVQLVESGGGLVQAGGSLRLSCAASGLIFITYAMGWYRQAPGKERELVATITLRGGSTYYADSVKGRFTISRDNAKNTVYLQMNSLKPEDTAVYYCAARYFSYYILRRIYPVREDYWGQGTQVTVSS,low polyreactivity
5,QVQLVESGGGLVQAGGSLRLSCAASGSTFRYNAMGWYRQAPGKERELVAAITSSGSRTYYADSVKGRFTISRDNAKNTVYFQMISLKPEDTAVYYCAAYGYYTKVTKYDYWGQGTQVTVSS,high polyreactivity
6,QVHLVESGGGLVQAGGSLRLSCDATGFTFQEYAMGWYRQAPGKERELVAAISTSGDSTYYADSVKGRFTISRDNAKNTVYLQMKSLKPEDNAVYYCATAYEDLDAGVLYDYWGQGTQVTVSS,low polyreactivity
7,QVQMQEIGGGLVQASGSLRLSCAASGNIFPDYFMGWYRLAPGKEREFVANITGGSTTNYADSVKGRFTISRDNAKNTVYLQINSLKPEDTAVYYCAVNFGTEQHAYWGQGTQVTVSS,high polyreactivity
8,QVHLVESVGGLVQAGGSLRLSCTASGSTCVAYDMGWYRQAPGQERDLVAAITSSGGRTYYADSVKGRFKFSLDNAMNTVYLQMNSLKPEDTAVYYCAAVTHGRYDWGQGPQVTVSS,high polyreactivity
9,QVQLVESGGGLVQGGGSLRLSCAASGFTFGRYTMGWYRQAPGKERELVAPISWSGGSTFYADSVKGRFTISRDNAQNTVYFQMNSLKPEDTAVYNCDTRLKSVSGGYNYWGQGTQVTVSS,high polyreactivity
10,QVQLVESGGGLVQAGGSLRLSCAASGRTFAPYAMAWYRQAPGKERELVAVISSSGGRTYYADSVKGRFTISRDNAKNTVYLQMNSLKPEDTAVYYCAADVYGYRFFKTGRYDYWGQGSQVTVSS,high polyreactivity
11,QVQLVESGGGLVQAGGSLRLSCAASGGNFKRYAMGWYRQAPGKERELVAAISGRGGSTYYADSVKGRFTISRDYAKNTVYLQMNSLKPEDTAVYYCDAYWRYRTDMDYWGQGTQVTVSS,high polyreactivity
12,QVQLVESGGGLVQAGGSLRLCCAACGRIFYAYAMGWYRQAPGKERELVAAISSSGGRTYYADSVKGRFTISRDNAKNTVYLQMNSLKPEDTAVYYSAAVHYYKFEWGQRTQVTVSS,high polyreactivity
13,QVQLVESGGGLVQAGGSLRLSCAASGRIFYEYAMGWYRQAPGKERELVAAITRGDSTYYADSVKGRCTISRDNAKNTVYLQMNSLKPEDTAVYYCNAGVFDYSGDSNYWGQGTQVTVSS,low polyreactivity
14,QVQLVESGGGLVQAGGSLRLSCAASGSIFTEYVMGWYRQAPGKERELVAAAITRGGSTNYADSVKGRFTISRDNAKNSVYLQMYCLKPEDTAVYYCNKDVWPVSRQLYTGKYDSWGQGTQVTVSS,low polyreactivity
15,QVQLVDSGGGLVQAGVSLRLSCAASGFIFYRYAMVWYRQAPGKERELVAAINWSGGGTYYADSVKGRFTISRDNAKNTVYLLMNSLKPEDTAVYYCAAVRSFRGSYWYEYWGQGSQVTVSS,high polyreactivity
16,QVQLVESGGGLVQAGGSLRLSCAASGRIFPQYAMGWYRQAPGKERELVAGITSVGSTYYADSVKGRFTISRDNAKTTVYLQMNSLKPEDTAVFYCAAVPSRYVRANRRTYRYYYWGQGTQVTVSS,high polyreactivity
17,QVQLVESGAGIVQAGGSLRLSCAASGRTFLDYTMGWYRQAPGKERELVAAIRTSAGSTYYADSVKGRFTISRDNAKKTVYLQLNSLKPEDTAVYYCAAVYYVHYYYSYDYWGQGTQVTVSS,low polyreactivity
18,QVQLVESGGGLVQAGGSLRLSCAASGRIFSRYAMGGYRQAPGKERELVAAIRYSGGRTYYADSVKGRFTISRDNAKNTVYLQMNSLIPEDTEVYYCAADGQWYYAPFRGGDYENDYWGQGTQVTVSS,low polyreactivity
19,QVQLVESGGGLVQAGGSLRLSCAASGGIFRGYAMGWYRQAPGKERELVAAISSRDGRTYYADSVKGRFTISRDNEKNTVYLQMNSLKPEDTAVYYCAASSFNNGHRYDYWGQGTQVTVSS,high polyreactivity
20,QVQLVESGGGLVQAGGSLRLSCAASGRTFYYYAMGWYRQAPGKERELVAAIRWRATSTFYADSVKGRFTISRDNAKNTVYLQMNSLKPEDTAVYYCATRGRWGYSGRSQGYSIYNYWGQGTKVTVSS,high polyreactivity
21,QVQLVESGRGLVQAGGSLRLSGAASGITQDDYDMGWSRQAPGKQRELVAAITSGGSTNYAHSVKGRFTNSRDNATNTVYLQMNSLKPEDTAVYYCAADTARTRIFDYWGQGTQVTVSS,low polyreactivity
22,QVQLVESGGGLVQAGGTLRLSCAASGGIIAINAMVWYRQAPGKERELVAAISWGDGITYYADSVKGRFTISRDNAKNTVYLQMNSLKPEDTAVYYCAADEDEYRGGDETWGQGSQVTVSS,low polyreactivity

row,Sequence,polyreactivity (PSR sort gate)
1,QVQLVESGGGLVQAGGSLRLSCAASGRTYSRNAMGWYRQAPGKERELVATISRGGGITFYADSVKGRFTISRDNAKNTVYLQMNSLKPEDTAVYYCAAQYYYWTRRPGDYWGQGTQVTVSS,high polyreactivity
2,QVQLVESGGGLVQAGGSLRLSCAASGRTFYGNAMGWYRQAPGKERELVAAITSGGGSTRYADSVKGRFTISRDNAKNTVYLQMNSLKPEDTAVYYCNATLGNFGYRRYSGHTRYYYWGQGTQVTVSS,high polyreactivity
3,QVQLVESGGGLVQVGGSLRLSCAASGITLSYYAMGWYRQAPGKERELVASITVSRTSTYYADSVKGRFTISRDNAKNTVYLQMNSLKPEDTAVYYCAAYAYQYRFSGYGYWGQGTQVTVSS,low polyreactivity
4,QVQLVESGGGLVQAGGSLRLSCAASGRTFLRYAMGWYRQAPGKERELVAAISWSGGRTYYADSVKGRFTISRDNAKNTVYLQMNSLKPEDTAVYYCNKVVLYGAHYYYWGQGTQVTVSS,high polyreactivity
5,KVQLVESGGGLVQAGGSLRLSCAASGRTFRTYAMGWYRQAPGKERELVAANSSGGSTNYADSVKGRFTISRDNAKNTVYLQMNSLKPEDTSVYYCATRPTSDFVKRRVYEWLDYWGQGTQVTVSS,low polyreactivity
6,QVQLLESGGGLVQAGGSHRLSCASSGRTFSRYAMGWYRQAPGKERELVAAISYSGGSTYADSVKGRFTISRDNAKNTVYLQMIRLKPEDTAVYYCAAEKYVYWFSYQYGYWGQGTQVSVSS,high polyreactivity
7,QVQLVESGGGLVQAGGSLRLSCAASGLIFYYYVKGWYRQAPGKERELVAAISVIGDSTYYADSVKGRFTISRDNAKNTVYLQMNSLKPEDTAVYYCNADPWRWDRESRYEYWGQGTQVSVSS,high polyreactivity
8,QVQLVESGGGLVQAGGSLRLSCAASGRTFFLYALGWYRQATGKERELFARISTSGGGTYYADSVKGRFTISRDHAKNTVYLQMISLKPEDTAVYYCAARTDRGQRRAGGYDFWGQGTQVTVSS,high polyreactivity
9,QDQLVESGGGLVQAGGSLRLSCAASGRTFVTYAMGWYRQAPGKEREFVAAITWSTGTSTYYADSVKGRFTISRDNAKNTVYLQMNSLKPEDTAGYYCAAYYVVHFGYWGQGTQVTVSS,low polyreactivity
10,QVQLVESGGGLVQAGGSLRLSCAASGITFVTYAMGWYRKAPGKERELVAAISRSGGRTYYADSVKGRFTISRDNAKNTVYLQMNSLKPEDTAVYYCAAERKNKYDYWGQGTQVTVSS,high polyreactivity
11,QVQLLESCVGLVHAGGSLRLSCAASGFIFGTNAMGWSRQAPGKEREWVAAINGRGGGTYYADSVKGRFTISRDNAKNTVYLQMNSLKQEDTAVYYCAASRFDYWGQGTQVTVSS,low polyreactivity
12,QVQLVESGGGLVQAGGSLRLSCAASGYTIIVNAMGWYRQAPGKERELVAAISWSSVSTYYADSVKGRFTISRDNAKNTVYLQMNSLKPEDTAVYYCAAEGYDYSQWFDYWGQGTQVTASS,high polyreactivity
13,QVQLVESGGGLVQAGGSLRLSCAASGRIFYYYAMGWYRQAPGKERELVAGIDSGDSTNYADSVKGRFTISRDNAKNTVYLQLNSLKPEDTAVYYCAALHYGGYFSYYPYYYWGQGTQVTVSS,low polyreactivity
14,QVHLVVSWGGLVQAGGSLRLSCSASGITFKRYAMGWYRQSRGNERELVAAINWNGCGTYYADSVKGRFTISRDNAKNTVYLQMNSLKPEDTAVYYCAAGLAYWYWRGYDYWGQGTQVTVSS,high polyreactivity
15,QVQLVESGGGLVQAGGSLRLSCAASGRTFQSNARGRARQAPGKETELVATISSDGSTYYADSVKGRFTISRDNAKNTVYLQMNSLKPEDTAVYYCAADSHPASTIGVRLDSWGQGTQVTVSS,low polyreactivity
16,QVQLVESGGGLVQAGGSLRLSCAASGIIFYYYVMGWDRQAPGKERELVAAISDSGDNTYYADSVKGRFTISRDNAKKTVYLQMNSVKPEDTAVYYCNSQVDYWSNPWIYRKYDYWGQGTQVTVSS,high polyreactivity
17,QVQLVESGGRLVQAGGSLRLSCAASGRIFSPYAMGRYRPAPGKERELVAAITQSGGITSYADSVKGRFTISRDNAKNTVYLQMISLKPEDTAVYYCNKDVWDGYDWPEFDYWGQGTQVTVSS,low polyreactivity
18,QVQLVESVGGLVQAGGSLRLSCAASGSTFYIYAMRWYRQAPGKERELVARISGSGGSTYYADSVKGRFTISRDNAKNTVYLQMNSLKPEDTAVYYCAADAIYKYYQYYAFPYYRYDYWGLGTQVTVSS,low polyreactivity
19,QVQHVESGGGLVQAGGSLRLSCAASGSTSDTNVMGWYRQDPGKERELVAAISYDDDRTYYADSVKGRFTISSDNAKNTVYLQMNSLKPEDTAVYYCATADDYPGDDYLEGGYWGQGTQVTVSS,low polyreactivity
20,QVQLVESGGGLVQAGGSLRLSCAASGFNFPRYTMGWSRKAPGKEREFVAGITLRGGSTYYADSVKGRFTISRANAKNTVYLQMNSLKPDETAVYYCARVISRGRSFGIGYDYWGQATQVTVSS,low polyreactivity
21,QVQLVESGGGLVQAGGSHRVSCAASGYIFLHYAMGWYRQATGKEREFVAAITYSGGNTYYADSVKGRFTISRDNAKNTVYLQMISLKPEDTAGYYCAKTRIYSKHWTEPYFYRVDSWGQGTQVTVSS,high polyreactivity
